Holding throughout (assay): NMR
One series deals with Lys12. As to conditions: 25 °C; <60 mM (no added salt; only HCl/NaOH used for pH adjustment); none (water without buffer); folded dimer, free protein, about 1.5 mM.
In the next series the test system is Lys30. To be noted: 25 °C; <60 mM (no added salt; only HCl/NaOH used for pH adjustment); none (water without buffer); folded dimer, free protein, about 1.5 mM.
A further series has as its system Lys32. As to conditions: 25 °C; <60 mM (no added salt; only HCl/NaOH used for pH adjustment); none (water without buffer); folded dimer, free protein, about 1.5 mM.
The next series deals with Lys45. As to conditions: 25 °C; <60 mM (no added salt; only HCl/NaOH used for pH adjustment); none (water without buffer); folded dimer, free protein, about 1.5 mM.
In a further series the test system is Lys53. To be noted: 25 °C; <60 mM (no added salt; only HCl/NaOH used for pH adjustment); none (water without buffer); folded dimer, free protein, about 1.5 mM.
The test system of a further series is Lys55. To be noted: 25 °C; <60 mM (no added salt; only HCl/NaOH used for pH adjustment); none (water without buffer); folded dimer, free protein, about 1.5 mM.
The subject of a further series is Lys56. As to conditions: 25 °C; <60 mM (no added salt; only HCl/NaOH used for pH adjustment); none (water without buffer); folded dimer, free protein, about 1.5 mM.
The subject of another series is Lys6. As to conditions: 25 °C; <60 mM (no added salt; only HCl/NaOH used for pH adjustment); none (water without buffer); folded dimer, free protein, about 1.5 mM.
Another series concerns Tyr16. To be noted: 25 °C; <60 mM (no added salt; only HCl/NaOH used for pH adjustment); none (water without buffer); folded dimer, free protein, about 1.5 mM.
For the next series, the system named is Tyr47. To be noted: folded dimer.
The next series concerns Tyr5. As to conditions: 25 °C; <60 mM (no added salt; only HCl/NaOH used for pH adjustment); none (water without buffer); folded dimer, free protein, about 1.5 mM.
In the next series the target is His31 (UniProt position 31, TIGIGHLLTKS). To be noted: cited from earlier work.

The term pKa denotes the pH at which an ionisable group is half protonated. On to “Ribbon-helix-helix (rhh) protein ORF56 from plasmid pRN1 (Sulfolobus islandicus (plasmid pRN1))”, for which the pKa stood at 10.54 ± 0.01 with Lys12; 10.86 ± 0.01 in the series on Lys30; 10.48 ± 0.01 in the series on Lys32; 11.27 ± 0.02 in the series with Lys45; 10.25 ± 0.02 in the series with Lys53; 11.08 ± 0.04 with Lys55. Besides, the pKa in the series with Lys56 was 10.96 ± 0.03; in the series on Lys6, 10.79 ± 0.01; in the series on Tyr16, 9.85 ± 0.01; with Tyr47 (25 °C, <60 mM (no added salt; only HCl/NaOH used for pH adjustment), none (water without buffer), free protein, about 1.5 mM), more than 13.7; in the series on Tyr47 (cited from earlier work), “above pH 13”; in the series on Tyr5, 9.85 ± 0.01.
For “T4 lysozyme (Enterobacteria phage T4 (Tequatrovirus T4))”, in the series with His31, the pKa is given as 9.
